Measurements as given in PMC3264566, “Structure-Function Studies of DNA Binding Domain of Response Regulator KdpE Reveals Equal Affinity Interactions at DNA Half-Sites”.
Residue numbers refer to the chain shown, from its start.

Legend:
Assay in all cases: EMSA; up to 1:8 DNA:protein; AUC: 50 mM HEPES pH 7.4, 150 mM KCl, 1 mM EDTA, 20 C, DNA 0.5 uM in SV; EMSA: 10 mM Tris pH 8.0, 50 mM NaCl, 5% glycerol, 0.1% Triton X-100, 10 mM DTT, 1 mM EDT
Conditions in all cases: protein: recombinant; chain copies: 2; blunt
KdpE DBD R200A = target: T1, KdpE DBD R200A (Escherichia coli str. K-12 substr. …, UniProt P21866 124-225, R200A)
T1 sequence: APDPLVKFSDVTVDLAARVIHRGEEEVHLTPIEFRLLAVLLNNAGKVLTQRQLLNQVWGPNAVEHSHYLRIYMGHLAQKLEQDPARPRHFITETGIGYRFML

KdpE DBD R193A = target: T2, KdpE DBD R193A (Escherichia coli str. K-12 substr. …, UniProt P21866 124-225, R193A)
T2 sequence: T1 sequence with R70A, A77R

KdpE DBD T215A = target: T3, KdpE DBD T215A (Escherichia coli str. K-12 substr. …, UniProt P21866 124-225, T215A)
T3 sequence: T1 sequence with A77R, T92A

Measured: binding result

B1: kdpFABCBS 30 bp (dsDNA)
DNA 1: CATTTTTATACTTTTTTTACACCCCGCCCG
DNA 2: CGGGCGGGGTGTAAAAAAAGTATAAAAATG
no binding: all assays above
